Publication PMC12809855, “Biochemical and Mechanistic Insights into O2 Scavenging and Stability of the Soluble Hydrogenase from Hydrogenophaga pseudoflava” (ACS Omega, 2025)

Substrate: NC(=O)c1ccc[n+]([C@@H]2O[C@H](COP(=O)(O)OP(=O)(O)OC[C@H]3O[C@@H](n4cnc5c(N)ncnc54)[C@H](O)[C@@H]3O)[C@@H](O)[C@H]2O)c1
Test: purified protein
Assay type: biochemical, Hydrogenophaga pseudoflava
Conditions: H2-saturated buffer, 50 mM Tris-HCl, no additional salt, pH 7, 30 °C, 1 mM TCEP, 1 μM FMN, kcat apparent

B1: HpSH (soluble hydrogenase from Hydrogenophaga pseudoflava, HoxFUYH) (Hydrogenophaga pseudoflava) (protein)
chain: MTAFDQPSALHAADAVLARWQHDPHALVQVLRETQAQTHWLPRELLAHIAAALRLTTAHVEGVASFYRFFHLRPVGRVHVLFSDNITDRMAGSDALMARLCARLGVAPGQVDAQGRFCVDRCSCTGLCDQGPALLVNHHQVVTRLDAGRVDQLAERLLAGVPPEDWPADWFAVEDHVRRADVLLQGLPADAPSLPAVLSRTPAELLAEVERSGLRGRGGAGFPTARKWRACAEADAPDGQRCVVCNADEGEPGTFKDRVLLGRHADELFDGMTLAARAIGAQTGLVYLRGEYRFLLPQLEAVLQRRRANGLLGRNAGGVAGFDFDIAIHLGAGAYVCGEESALIESLEGQRGTPRIRPPFPVQRGYLGRPTVVNNVETLVAVAHIARRGGAWWAGLGTPESTGTKIHSVSGDCERPGLYEYPLGTPLAQILADCGARNAQAVQVGGPSGSCVPASGFHRAIAFEDLPSAGALMVFDQTRDLFEVARHFARFFAHESCGLCTPCRVGTELVVRRLDKLAHERGAGRGSAFDIARLQELDALLHSGTHCGLGVSACNPLRDTLAHFGQAYAQRSTAAQFQPGIDLDAELSSARRATGRQDRGAHLNTEHGA
notes: full-length HoxFUYH heterotetramer, N-terminal Strep-tag on HoxF, coexpressed with endopeptidase HoxW (HoxH C-terminally processed), homologous expression in H. pseudoflava from pOCEx1; no HoxI; preparation has excess HoxF; with NAD-reducing hydrogenase HoxS subunit gamma; NAD-reducing hydrogenase HoxS subunit delta; NAD-reducing hydrogenase HoxS subunit beta
Km: 400 ± 140 µM
kcat: 137 ± 20 s⁻¹
